Laboratory results: US20230272088A1 (SYNTHEKINE, published 2023)

T1: extracellular domain of hIFNGR2 (human, UniProt P38484 28-247, conjugated to Alexa647 (site not stated))
T1 construct: also called hIFNGR2-ECD; human IFNGR2 ECD
T1 sequence: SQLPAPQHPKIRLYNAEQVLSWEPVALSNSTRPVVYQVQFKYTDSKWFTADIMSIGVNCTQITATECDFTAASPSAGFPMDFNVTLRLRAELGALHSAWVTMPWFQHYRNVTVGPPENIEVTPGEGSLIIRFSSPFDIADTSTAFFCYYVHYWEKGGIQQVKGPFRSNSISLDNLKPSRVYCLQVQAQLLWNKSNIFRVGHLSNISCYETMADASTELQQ

T2: extracellular domain of hIFNGR1 (human, UniProt P15260 18-245, conjugated to Alexa647 (site not stated))
T2 construct: UniProt P15260 residues 18-245; also called hIFNGR1-ECD; human IFNGR1 ECD
T2 sequence: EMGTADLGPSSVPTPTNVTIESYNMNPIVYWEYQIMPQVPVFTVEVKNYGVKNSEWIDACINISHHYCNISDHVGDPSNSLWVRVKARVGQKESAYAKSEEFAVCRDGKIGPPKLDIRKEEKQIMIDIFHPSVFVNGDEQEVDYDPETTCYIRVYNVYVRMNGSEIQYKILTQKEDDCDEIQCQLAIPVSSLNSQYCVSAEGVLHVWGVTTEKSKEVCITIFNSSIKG


Experiments:
[1] = target: T1, extracellular domain of hIFNGR2; assay: flow cytometry, yeast-displayed VHH, 100 nM Alexa647-conjugated antigen
Procedure: (§1) Binding of individual VHH to human and murine antigen was tested by flow cytometry. Briefly, 2E5 yeast cells expressing a single sdAb clone were added to each well of a 96 well plate. The first plate was incubated with 100 nM of human antigen conjugated to Alexa647 whereas the second plate was incubated with 100 nM of murine antigen conjugated to Alexa647. Yeast cells were washed 3 times with PBS containing 1% bovine serum albumin. Yeast cells were analyzed using flow cytometry and clones showing a mean fluorescence intensity of greater than 1000 were considered as binding molecules. Specificity of sdAbs was confirmed by incubating yeast cells with a irrelevant protein conjugated to Alexa647. Positive clones were sequenced, and sequences analyzed to identify unique clonotypes.

[2] = target: T2, extracellular domain of hIFNGR1; assay: as above
Procedure: as §1

binding result [1] | binding result [2] | Binder
– | binds | DR919 (VHH, also called anti-IFNGR1 sdAb VHH DR919) VHH: EVQLVESGGGLVQPGGFLRLSCAASRRTLSTYAMGWFRQAPGKEREFVAAISWRSGNTYYADSVKGRFTISRDNAKNTMYLQMNSLKPEDTAVYYCAANEVATMSGPHDHWGQGTLVTVSS
binds | – | DR937 (VHH, also called anti-IFNGR2 sdAb VHH DR937) VHH: QVQLVESGGGLVQPGGSLRLSCAASGRTFRSYSMGWFRQAPGKEREFVAAISWYSGTTYYADPVKGRFTISRDDAKNTLYLQMNSLKPEDTAVYYCAANEIATMESSNDYWGQGTQVTVSS
binds | – | DR941 (VHH, also called anti-IFNGR2 sdAb VHH DR941) VHH: QVQLVESGGGLVEAGGSLRLACAASGSIFRLNLMGWYRQAPGKQRELVAHVGTTGNTAYADSVKGRFTISKDDAKNMVFLQMNSLKPEDTAVYYCYADRWGQFSWGQGTQVTVSS
binds | – | DR934 (VHH, also called anti-IFNGR2 sdAb VHH DR934) VHH: QVQLVESGGGLVQAGGSLRLSCAASGRSFANYAMGWFRQAPGKERETVAAISRGGGSTWYADSVKGRFTISKDNAKNTVYLQMNSLKPEDTAIYYCAARSYSGSYTYSFGEYDYWGQGTQVTVSS
– | binds | DR921 (VHH, also called anti-IFNGR1 sdAb VHH DR921) VHH: QVQLVESGGGLVQAGDSLRLSCAASGRTFTFSTHNMGWFRQAPGKEREFVGGIMWTSRASYADSVKGRFTVSRDNAKNTVYLQMNSLKPEDTAVYYCAAAWYGNSGASYDYWGQGTQVTVSS
binds | – | DR930 (VHH, also called anti-IFNGR2 sdAb VHH DR930) VHH: EVQLVESGGGLVQAGGSLRLSCTVSGRTFSSYAVAWFRQAPGNVRELAAALSRGGGSAYYTDSVKGRFTISRDNAKNTVYLQMNSLKPEDTAVYYCAARNYDGTYYQENQYNYWGQGTQVTVSS
binds | – | DR943 (VHH, also called anti-IFNGR2 sdAb VHH DR943) VHH: QVQLVESGGGLVQAGGSLRLSCVASGRTVGYGMAWFRQAPGKQRDVVAAITWSGTSTYYPDSVKGRFTISRDNAKNTMYLQMSSLKPEDTAVYYCAAGSRRRVGVDVGGYDYWGQGTQVTVSS
binds | – | DR929 (VHH, also called anti-IFNGR2 sdAb VHH DR929) VHH: QVQLVESGGGLVQAGGSLRLSCVASGRTFSSYAMGWFRQTPGKEREFVSAISRGGGSTDYADSVKGRFTISRDNAKNTVYLQMNNLKSEDTAVYYCALRAYSGRYYQFLEYDYWGQGTQVTVSS
binds | – | DR931 (VHH, also called anti-IFNGR2 sdAb VHH DR931) VHH: QVQLVESGGGLVQAGGSLLLSCAASGRTFSTYAMGWFRQAPGKERMFVAAISVNGGSTYYADSVTGRFTISRDNAKNTMYLQMNNLKPGDTAVYYCAARRPYPGSDFLTWASYDYRGQGTLVTVSS
– | binds | DR904 (VHH, also called anti-IFNGR1 sdAb VHH DR904) VHH: EVQLVESGGGLVQAGGSLRLSCEASESILSINTMGWFRQAPGKQRELVAAISSGGSTNYADSVKGRFTISRDNAKNTVYLQMNSLKPEDTAVYYCDADRAYYKGQGTQVTVSS
binds | – | DR935 (VHH, also called anti-IFNGR2 sdAb VHH DR935) VHH: QVQLVESGGGLVQAGGSLRLSCAASGRAFSTYALGWFRQAPGKEREFIAAISRGGGSTDYADSVKGRFTISRDNAKSTVYLQMNSLKPEDTAVYYCAARSYSSSYYYSQYEYDYWGQGTQVTVSS

Continued, binder first:

Binder | binding result [1] | binding result [2]
DR933 (VHH, also called anti-IFNGR2 sdAb VHH DR933) VHH: QVQLVESGGGLVQPGDSLRLSCVASGGTISSLAMGWFRQAPGKEREFVAAISWSGRSTYYVDSVKGRFTISTDNAKNTVYLQMNSLKPEDTAVYYCVAGEDGHSEYDYWGQGTQVTVSS | binds | –
DR950 (VHH, also called anti-IFNGR2 sdAb VHH DR950) VHH: QVQLVESGGGLVQAGGSLRLSCAASGLTTSSAALAWFRQAPGKERELDPTITSGGGSTYYADSVKGRFTISKDNAKNTLYLQMSSLKPEDTAVYYCAARFYSTTYYYREHEYSDWGQGTQVTVSS | binds | –
DR932 (VHH, also called anti-IFNGR2 sdAb VHH DR932) VHH: QVQLVESGGGLVQAGGFLRLSCAASGRTFSYTTIGWFRQAPGKEREFVAVISAGGGSRDYADALKGRFTISRDNAKKMVYLQMNNLKPEDTAVYYCAVRRNTDTYTTTGDYDYWGQGTQVTVSS | binds | –
DR927 (VHH, also called anti-IFNGR2 sdAb VHH DR927) VHH: QVQLVESGGGLVQAGGSLRLSCAASGRTFTSYAMNWFRQAPGKEREFVAAISWSSGNTYVADSVKGRFAISRDKAKNTMYLQMNSLAPEDTAVYYCAATTIATMSDEYTYWGQGTQVTVSS | binds | –
DR951 (VHH, also called anti-IFNGR2 sdAb VHH DR951) VHH: QVQLVESGGGLVQAGGSLRLSCAASGRTFGTSFGSLSMGWFRQAPGKEREFVAAISRNIGRTYYADSVKDRFTISRDNAKNTASLQMNSLEPEDTAVYNCAATNSYDDLRRSYAYDYWGQGTQVTVSS | binds | –
DR948 (VHH, also called anti-IFNGR2 sdAb VHH DR948) VHH: QVQLVESGGGLVQAGDSLRLSCVASGSIDSSYYVSWFRQAPGKERDLVAAINWGDSRTAYADSVKGRFTISRDNAKNTVYLQMHSLRPNDTAVYYCASRIGLGGPVVAAPTRYPYWGQGTLVTVSS | binds | –
DR946 (VHH, also called anti-IFNGR2 sdAb VHH DR946) VHH: QVQLVESGGGLVQPGESLRLSCAASGPFTRYAMGWFRQAPGKEREFVAAISWSSGNTYYVDSVKGRFTISRDNAKNTMYLQMNSLKPEDTAVYYCAANEVATMSGPDDYWGQGTQVTVSS | binds | –
DR939 (VHH, also called anti-IFNGR2 sdAb VHH DR939) VHH: EVQLVESGGGLVQAGGSMRLSCANSGRTFGTYAMGWFRQSPGKERERVASIDRDGSMSYYADSVKGRFTISGDNAKNTVYLQMNSLKPEDTAVYYCAASRRAVISLQTVDYWGQGTQVTVSS | binds | –
DR928 (VHH, also called anti-IFNGR2 sdAb VHH DR928) VHH: QVQLVESGGGLVQAGGSLRLSCAASGRTFSNYRMGWFRQAPGKEREFVAAISRGGGTTLYADSVKGRFTISRDNAKNTVDLQMNRLKPEDTAVYFCAAGDFSTTWDEYNYWGQGTQVTVSS | binds | –
DR940 (VHH, also called anti-IFNGR2 sdAb VHH DR940) VHH: EVQLVESGGRLVQTGGSLRLSCAASGRTFSNYAMGWFRQAPGKEREFVAAISWYSGNTYYADSVKGRFTISRDNAKNTMYLQMNSLKPEDTAVYYCAANQIATMISVGDYWGQGTLVTVSS | binds | –
DR947 (VHH, also called anti-IFNGR2 sdAb VHH DR947) VHH: QVQLVESGGGLVQAGGSLRLSCAASGGSFGRYTMGWYRQAPGKEREFVAVISWSGTNTYYADSVKGRFTISRDNAKNTMYLQMNDLKPEDTAVYYCAARETYYSHWDERMEYDYWGQGTQVTVSS | binds | –
DR952 (VHH, also called anti-IFNGR2 sdAb VHH DR952) VHH: QVQLVESGGGLVQAGGFLRLSCAASGRTFSSLAMAWFRQAPGKEREFVAAISRSGGSTDYADSVKGRFTISRDNAKSTLYLQMSSLKPEDTAVYYCAARDYSTLQYYNEYEYSDWGQGTLVTVSS | binds | –
DR949 (VHH, also called anti-IFNGR2 sdAb VHH DR949) VHH: QVQLVESGGGLVQAGGSLRLSCAASESILRFNVMSWLRQAPGKQRELVAVITSGGSTNYADSVKGRFTISRDNAKNTVYLQMNSLKPEDTAVYYCAADESGQYYWGQGTQVTVSS | binds | –
DR938 (VHH, also called anti-IFNGR2 sdAb VHH DR938) VHH: QVQLVESGGGLVQPGGSLRLSCTASGRPRTTYAMGWFRQAPGKEREIVAAISKAGGSTYVADSAKGRFAISKDNAKNTVYLQMNSLKPEDTAVYYCAARAGFAAQIFEYDYWGQGTLVTVSS | binds | –
DR936 (VHH, also called anti-IFNGR2 sdAb VHH DR936) VHH: EVQLVESGGGLVQAGGSLRLSCAASGRTFSSVAMAWFRQAPGKEREFVSAISSGGGSTDYADSVKGRFTISKDNAKNTMYLQMDSLKPEDTAVYYCAARDYSSRRYYQSRYEYDLWGLGTQVTVSS | binds | –
